The target of assay [1] is T1, cynomolgus monkey CSF-1R-His (cynomolgus monkey, UniProt A0A2K5WG90 20-512).
T1 construct: Bought protein; also called cynoCSF-1R-His; cynomolgus CSF-1R protein; not shown: His tag
The assay can be described thus: ELISA on cynomolgus CSF-1R-His.

Assay [2] addresses T2, human CSF-1R protein (huCSF-1R), full length, expressed on CHO-S cells (human, UniProt P07333 20-972).
T2 construct: whole, on cells; Also used here as the target of the monocyte proliferation assays (native receptor on human monocytes); also called CSF-1R/CHO cells; CHO cells highly expressing CSF-1R
The assay can be described thus: flow cytometry on CHO cells highly expressing CSF-1R.

B1: anti-CSF-1R chimeric antibody C27C (antibody, V domains shown)
VH: EVQLQQSGAELVRPGALVKLSCKASGFNIKDYYMHWVKQRPEQGLEWIGRFDPENGDTIYDWKFQDKAIITSDTSSNTAYLHLSSLTSEDTAVYYCARSGDYMFDYWGQGTLVTVSA
VL: ETTVTQSPASLSMAIGEKVTIRCITSTGVDDDFNWYQQRPGEPPKLLISEGNTLRPGVPSRFSSSGYGTDFVFTIENMLSEDVADYFCLQSDHLPFTFGSGTKLEIK
In the case of B1, the binding result in assay [1] is “no binding”.

B2: anti-CSF-1R chimeric antibody C11C (antibody, V domains shown)
VH: EVQLQQSGPELVKPGASVKISCKASGYTFSNYYMNWVNQRHGERLEWIGEMNPNNGDSSYNQKFKGKATLTVDKSSSTAYMELRSLTSEDSAVYYCARRSPWWFFDVWGPGTTVIVSS
VL: DIVMTQSPSSLTVTAGEKVTMSCKSSQSLLNSGNQKNSLTWYQQKPGQPPKLLIYWASTRESGVPDRFTGSGSGTDFTLTISSVQTEDLAVYYCQNDYTYPFTFGTGTKLEIK
Turning to B2, the binding result in assay [2] is reported as “binds”.

B3: humanized anti-CSF-1R antibody huC19 (antibody, human IgG1, kappa, V domains shown)
VH: QVQLVQSGAEVKKPGASVKVSCKASAITFTDYYMNWVKQAPGQGLEWIGDIYPNTGGTTYNQKFKGRVTLTVDTSISTAYMELSRLRSEDTAVYYCAREKITMEYYYAMDYWGQGTLVTVSS
VL: DIQLTQSPSSLSASVGDRVTITCRASESVSSHDIHLIHWYQQKPGKAPKLLIYAASSLESGVPSRFSGSGSGTDFTLTISSLQPEDFATYFCQQSIEDPPTFGGGTKVEIKR
notes: Full-length chains; also called huC19 (VH-c heavy chain and VL-a light chain)
For the molecule B3, the binding result in assay [2] was “binds”.

B4: humanized anti-CSF-1R antibody huC11 (antibody, human IgG1, kappa, V domains shown)
VH: EVQLVQSGAEVKKPGASVKVSCKASGYTFSNYYMNWVRQAPGQGLEWMGEMNPNTGDSSYNQKFKGRVTLTVDKSTSTAYMELSSLRSEDTAVYYCARRSPWWFFDVWGQGTMVTVSS
VL: DIVMTQSPDSLAVSLGERATINCKSSQSLLSSGNQKTSLTWYQQKPGQPPKLLIYWASTRESGVPDRFSGSGSGTDFTLTISSLQAEDVAVYYCQNDYTYPFTFGQGTKLEIKR
notes: Full-length chains; also called huC11 (VH-b heavy chain and VL-b light chain)
On to B4, for which the binding result in assay [2] is “binds”.

B5: anti-CSF-1R chimeric antibody C19C (antibody, V domains shown)
VH: EVQLQQSGPELVKPGASVKISCTASAITFTDYYMNWVKQSPGKGLEWIGDIYPNNGGTTYNQKFKGKATLTVDKSSTTAYMELRSLTSEDSAVYYCAREKITMEYYYAMDYWGQGTSVTVSS
VL: DIVLTQSPASLAVSLGQRATISCRASESVSSHDIHLIHWYQQKPGQSPKLLIYAASSLESGVPARFSGSGSATDFTLNIHPVEEEDAATYFCQQSIEDPPTFGGGTKLEIK
For B5, the binding result in assay [2] was “binds”.

(Values after patent WO2019080889A1 (dated 2019).)
